Reference: patent US20140341843A1 (ELEVEN BIOTHERAPEUTICS, published 2014)

Target: T1, soluble recombinant human IL-1RI (corresponding to the extracellular domain of IL-1RI) (human, UniProt P14778 18-336)
T1 construct: extracellular domain; also called interleukin-1 receptor I; IL-1R1 receptor
T1 sequence (looked up): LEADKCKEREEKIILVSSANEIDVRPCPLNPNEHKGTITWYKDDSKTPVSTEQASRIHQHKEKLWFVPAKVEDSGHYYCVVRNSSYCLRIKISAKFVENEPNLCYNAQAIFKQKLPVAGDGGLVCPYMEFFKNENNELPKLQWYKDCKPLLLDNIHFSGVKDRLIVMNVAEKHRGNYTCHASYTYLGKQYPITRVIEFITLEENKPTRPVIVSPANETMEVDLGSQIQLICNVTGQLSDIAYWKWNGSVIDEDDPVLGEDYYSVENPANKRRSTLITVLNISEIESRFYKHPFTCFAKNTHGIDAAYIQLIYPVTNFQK
Test: Kd to the IL-1R1 receptor as listed in Table 15; method not restated, values are the SPR values of Table 7 rounded

- Kd: 0.64 nM
B1: P02 (designed binder)
chain: APVRSLAFRIWDVNQKTFYLRNNQLVAGYLQGPNVNLEEKIDVSFVQGEESNDKIPVALGIHGGKMCLSCVKSGDETRLQLEAVDPKNYPKKKMEKRFVFNKIEINNKLSFESAACPGWFLCTAMEADQPVSLTNMPDEGVMVTKFYMQFVSS
notes: IL-1β/IL-1Ra chimera expressed in E. coli; also called P02 domain; chimeric cytokine domain P02
